# Experimental data from patent US8623627B2, “Labelling of fusion proteins with synthetic probes” (New England Biolabs, Inc, priority 2006, dated 2014).
# Changes are numbered by the printed parent chain.
# T1: GST-ACT1 (Homo sapiens, UniProt P16455, A127T/A154D/C150Q/C62A/G131S/G132T/G153L/K125A/K32I/L33F/M134L/N157G/Q115S/Q116H/R128A/R135D/S151G/S152D/S159M/V148E/Y114R)
# T1 construct: made in house
# T1 sequence (P16455 1-182 K32I/L33F/C62A/Y114R/Q115S/Q116H/K125A/A127T/R128A/G131S/G132T/M134L/R135D/V148E/C150Q/S151G/S152D/G153L/A154D/N157G/S159M): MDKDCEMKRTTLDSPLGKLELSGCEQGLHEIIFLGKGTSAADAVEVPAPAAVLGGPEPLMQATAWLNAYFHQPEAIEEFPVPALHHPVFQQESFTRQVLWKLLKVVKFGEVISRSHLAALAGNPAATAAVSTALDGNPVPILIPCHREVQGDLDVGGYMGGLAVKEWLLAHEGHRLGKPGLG
# T2: 6×His-^NAGT (Homo sapiens, UniProt P16455, A127T/A154D/C150Q/C62A/G131K/G132T/G153L/K125A/K32I/L33F/M134L/N157G/Q115S/Q116H/R128A/R135S/S151G/S152D/S159E)
# T2 construct: ^NAGT is a 182 amino acid mutant of ^wtAGT in which the last 25 amino acids are deleted
# T2 sequence (P16455 1-182 K32I/L33F/C62A/Q115S/Q116H/K125A/A127T/R128A/G131K/G132T/M134L/R135S/C150Q/S151G/S152D/G153L/A154D/N157G/S159E): T1 sequence (P16455 1-182 K32I/L33F/C62A/Y114R/Q115S/Q116H/K125A/A127T/R128A/G131S/G132T/M134L/R135D/V148E/C150Q/S151G/S152D/G153L/A154D/N157G/S159M) with R114Y, S131K, D135S, E148V, M159E
# B1: ACT 10: alkylcytosine transferase 10, SEQ ID NO:12, from error prone PCR of ACT9 (protein)
# chain: T1 sequence (P16455 1-182 K32I/L33F/C62A/Y114R/Q115S/Q116H/K125A/A127T/R128A/G131S/G132T/M134L/R135D/V148E/C150Q/S151G/S152D/G153L/A154D/N157G/S159M) with M60I, R114E, A121V, S131N, E148V, L153S, G157P, M159L
# modifications: alyklcytosine transferase 10 derived from O6- alkylguanine-DNA alkyltransferase
# B2: ^NAGT: 182 amino acid mutant of ^wtAGT, SEQ ID NO:2, starting point for directed evolution (protein)
# chain: T1 sequence (P16455 1-182 K32I/L33F/C62A/Y114R/Q115S/Q116H/K125A/A127T/R128A/G131S/G132T/M134L/R135D/V148E/C150Q/S151G/S152D/G153L/A154D/N157G/S159M) with R114Y, S131K, D135S, E148V, M159E
# modifications: O6-alkylguanine-DNA alkyltransferase (AGT) mutant
# B3: ACT 1: alkylcytosine transferase 1, SEQ ID NO:1, derived from ^NAGT by directed evolution (protein)
# chain: T1 sequence (P16455 1-182 K32I/L33F/C62A/Y114R/Q115S/Q116H/K125A/A127T/R128A/G131S/G132T/M134L/R135D/V148E/C150Q/S151G/S152D/G153L/A154D/N157G/S159M)
# modifications: alkylcytosine transferase 1 derived from O6- alkylguanine-DNA alkyltransferase
# Tests used:
# GST-ACT1 = molecular target: T1, GST-ACT1; assay: In vitro specific dual labelling assay, labelling of GST-ACT1; format: biochemical; conditions: equimolar GST-ACT1 and 6×His-^NAGT 0.5 μM, single substrate 5 μM, 24° C., 60 minutes
# Method: (§1) Fluorescent dye-labelled protein mixtures were analyzed by SDS-PAGE, see Example 12. GST-ACT1: fusion protein of ACT 1 (SEQ ID NO:1) with glutathione S-transferase (GST). 6×His-AGT: fusion protein of ^NAGT (SEQ ID NO:2) with the short peptide 6×His. […] BCFL: compound 5 (Example 4). BCCy5: compound 10 (Example 8).
# (§2) Labelling reactions were quenched by addition of 4× SDS buffer (8% SDS, 10% β-mercaptoethanol, 240 mM Tris pH 6.8, 40% glycerol) and incubation for 5 min at 95° C. Fluorescent dye-labelled protein mixtures were analyzed by SDS-PAGE as described above.
# 6×His-^NAGT = molecular target: T2, 6×His-^NAGT; assay: In vitro specific dual labelling assay, labelling of 6×His-^NAGT; format: biochemical; conditions: equimolar GST-ACT1 and 6×His-^NAGT 0.5 μM, single substrate 5 μM, 24° C., 60 minutes
# Method: as §1, §2
# [1] = Reaction rates of labelling of GST fusion proteins with BCFL; format: biochemical; conditions: for kBCFL: second-order rate constant, GST-fusion protein with BCFL, 50 mM HEPES pH 7.2, 24° C.
# Method: (§3) The fluorescent readout of an SDS gel run after different time of incubation is shown on top with the corresponding graph at the bottom. The percentage of ACT-Fluorescein conjugate (% ACT-FL) formed from ACT is shown vs. time of incubation (min). […] GST-ACT10: fusion protein of ACT 10 (SEQ ID NO:12) with glutathione S-transferase (GST).
# (§4) The genes of mutants isolated after phage selection according to Example 9 were amplified by PCR using primers 6 (N, AGT, SEQ ID NO:8) and 7 (C, AGT, SEQ ID NO:9) that contain, respectively, BamH1 and EcoR1 restriction sites for subsequent subcloning into pGEX-2T vector (Amersham Biosciences, Otelfingen, Switzerland). Expression and purification of proteins as GST-ACT fusion proteins were performed as previously described for AGT fusion proteins (A. Juillerat, T. Gronemeyer, A. Keppler, S. Grendreizig, H. Pick, H. Vogel, K. Johnsson, Chem. Biol. 10:313, 2003). […] Samples were taken at different times and the labelling reaction was quenched by addition of 4× SDS buffer (8% SDS, 10% β-mercaptoethanol, 240 mM Tris pH 6.8, 40% glycerol) and incubation at 95° C. for 5 min. The reaction advancement was determined by detection of the fluorescent dye-labelled proteins in SDS-PAGE gel and quantification of fluorescence intensity using a Pharox FX™ molecular imager. The data were fitted to a pseudo-first order reaction model. Second-order rate constants were then obtained by dividing the pseudo first-order constant by the concentration of fluorogenic substrate.
# [2] = Reaction rates of labelling of GST fusion proteins with BGFL; format: biochemical; conditions: for kBGFL: second-order rate constant, GST-fusion protein with BGFL, 50 mM HEPES pH 7.2, 24° C.
# Method: as §3, §4
# [3] = Urea-induced unfolding, read out as ACT-Fluorescein formed with BCFL; format: physicochemical; conditions: for half unfolding urea concentration C1/2: protein 0.5 μM, urea 0 to 8 M for 30 minutes, then 20 μM BCFL for 2 hours
# Method: Shown is the percentage of ACT-Fluorescein (% ACT-FL) formed. The value obtained at 0 M urea [(NH2)2CO] is set to 100%. Protein (0.5 μM) was incubated in kinetic buffer (50 mM HEPES, pH 7.2, 1 mM DTT) supplemented with urea (0 to 8 M) for 30 minutes. Then the solution was adjusted to 20 μM BCFL and incubated for 2 hours. Samples were then boiled 5 min at 95° C. in SDS buffer. Fluorescent dye-labelled protein mixtures were analyzed by SDS-PAGE. The data set was fitted with Y=100/(1+10^((log C1/2−X)*HillSlope)) to get the half unfolding urea concentration C1/2. The following values of C1/2 were found for the different mutants: • ACT1 2.8±0.1 M; ACT9 4.1±0.1 M; ACT10 5.1±0.2 M.
# [4] = versus ^wtAGT; cited from earlier work
labelling of 6×His-^NAGT (6×His-^NAGT),Molecule,labelling of GST-ACT1 (GST-ACT1),kBCFL [1] [M⁻¹ s⁻¹],kBGFL [2] [M⁻¹ s⁻¹],half unfolding urea concentration C1/2 [3] [M],also measured
6%,N-[4-(4-Aminopyrimidin-2-yloxymethyl)-benzyl]-Cy5-carboxamide [BCCy5],complete labelling,,,,
complete labelling,O^6-[4-(Cy5)-Aminomethyl]-benzyl guanine [BGCy5],,,,,
,B1,,1130,10,5.1 ± 0.2,"reactivity towards benzylcytosine [1]: high reactivity; kBC ([1]; FIG. 2, 0.5 μM GST-ACT10 with BCFL): 1130 ± 150 M⁻¹ s⁻¹; kBG ([2]; FIG. 2, 0.5 μM GST-ACT10 with BGFL): ~10 M⁻¹ s⁻¹; stability against denaturation by urea ([3]; 4 M urea): high stability"
,B2,,26,28000,,higher activity towards benzylguanine derivatives than wild-type ^wtAGT [4]: approximately 50 fold
,B3,,730,<10,2.8 ± 0.1,

Molecule,labelling of 6×His-^NAGT (6×His-^NAGT),labelling of GST-ACT1 (GST-ACT1),kBCFL [1] [M⁻¹ s⁻¹],kBGFL [2] [M⁻¹ s⁻¹],half unfolding urea concentration C1/2 [3] [M],also measured
"Nc1ccnc(OCc2ccc(CNC(=O)c3ccc4c(c3)C3(OC4=O)c4ccc(O)cc4Oc4cc(O)ccc43)cc2)n1 [BCFL, N-[4-(4-Aminopyrimidin-2-yloxymethyl)-benzyl]-fluorescein-6-carboxamide]",76%,complete labelling,,,,
